Experiments:
S6K2 = biological target: T1, S6K2 (Homo sapiens, UniProt Q9UBS0); experiment: In vitro GST pulldown of p300 GST-fusion fragments with recombinant S6K2; format: binding; conditions: GST fusion proteins on glutathione beads, highly purified recombinant S6K2
T1 construct: made in house; GST-p300 fragments: bacteria
Text: In FIG. 1A, S6K1 and S6K2 were immunoprecipitated from MCF-7 cells using polyclonal antibodies or pre-immune serum control. Co-immunoprecipitated p300 was detected by western blotting with specific antibody. In FIG. 1B, 293 cells were cotransfected with either EE-S6K1 and Gal4-p300 or empty vector and Gal4-p300. S6K1 was immunoprecipitated using anti-EE antibody and associated p300 was detected by western blotting with anti-Gal4 antibody. Input: approximately ten percent of soluble lysate. In FIG. 1C, NIH-3T3 cells were transfected with empty vector or EE-S6K2. Anti-EE immunoprecipitates were subjected to western blotting with anti-p300 antibody. Input: approximately one percent of soluble lysate. […] Endogenous S6K1 and S6K2 were immunoprecipitated from MCF-7 cells using polyclonal antibodies. Associated P/CAF was detected by western blotting with polyclonal antibodies (Upstate). In FIG. 1E, the full length p300 was used to produce several GST-fusion fragments as shown (Hasan et al. (2001) Mol. Cell. 7, 1221-1231). Expressed fusion proteins were coupled to glutathione beads and used in an in vitro GST pulldown assay with recombinant S6K2. After extensive washing, bound S6K2 was detected by western blotting. […]

recombinant S6K1 = experiment: In vitro acetylation with 14C labelled acetyl coenzyme A, S6K1; format: biochemical; conditions: 1 μg recombinant S6K1, HAT buffer with 14C AcCoA
Method: (§1) In FIG. 2A, recombinant S6 kinases were acetylated in vitro using the purified acetyltransferase domain of p300 or full length PCAF and ^14C-labelled acetyl CoA. Proteins were resolved by SDS-PAGE and acetylated proteins were analysed by phosphorimaging (Bio-rad). In FIG. 2B, recombinant S6K2 or GST were subject to in vitro acetylation reactions with p300 and 14C AcCoA. Recombinant PKB/Akt, PKCa, PDK1 and PI3K (p85a/p110a) were purified using baculovirus expression system. In vitro acetylation assay was carried out as previously described. In FIG. 2D, HEK 293 cells were transfected with S6 kinases in the absence or presence of Gal4-p300 as shown. Cells were treated with medium containing either solvent control or TSA to a final concentration of 660 nM for twelve hours prior to harvesting. Recombinant S6 kinases were immunoprecipitated using the EE-antibody and acetylated S6 kinase was detected by western blotting with polyclonal acetylated lysine antibodies (Upstate). The level of immunoprecipitated S6K1 and S6K2 was analysed by reprobing the membranes with specific antibodies. The expression of Gal4-p300 was tested in total lysates using anti-Gal4 antibodies.
(§2) Since S6Ks can interact with a region within, or adjacent to the acetyltransferase domain of p300 we hypothesized that they may in fact be targeted by its enzymatic activity. […] We detected weak, but reproducible acetylation of PKCa.

recombinant S6K2 = experiment: In vitro acetylation with 14C labelled acetyl coenzyme A, S6K2; format: biochemical; conditions: 1 μg recombinant S6K2, HAT buffer with 14C AcCoA
Method: as §1, §2

T1 sequence (Q9UBS0 with tags, fused parts or gaps A420V): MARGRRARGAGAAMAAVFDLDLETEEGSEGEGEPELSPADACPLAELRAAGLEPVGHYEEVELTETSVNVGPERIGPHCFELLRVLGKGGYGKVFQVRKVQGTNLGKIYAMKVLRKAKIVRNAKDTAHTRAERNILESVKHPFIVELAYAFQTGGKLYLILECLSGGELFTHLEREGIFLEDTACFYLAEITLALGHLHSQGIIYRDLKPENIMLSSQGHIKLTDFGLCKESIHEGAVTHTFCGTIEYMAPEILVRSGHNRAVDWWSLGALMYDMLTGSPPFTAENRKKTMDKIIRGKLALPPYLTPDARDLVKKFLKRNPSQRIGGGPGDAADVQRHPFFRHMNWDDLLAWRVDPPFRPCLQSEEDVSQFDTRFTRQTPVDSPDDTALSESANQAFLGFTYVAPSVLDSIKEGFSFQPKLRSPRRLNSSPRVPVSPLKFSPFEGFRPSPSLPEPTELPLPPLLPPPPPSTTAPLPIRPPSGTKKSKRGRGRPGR

B1: p300 domain 4: active domain of p300 acetyltransferase, amino acid 1,459 to 1,892 (SEQ ID NO: 6), contains part of the acetyltransferase domain (protein, listed as Homo sapiens)
chain: KPKRLQEWYKKMLDKAVSERIVHDYKDIFKQATEDRLTSAKELPYFEGDFWPNVLEESIKELEQEEEERKREENTSNESTDVTKGDSKNAKKKNNKKTSKNKSSLSRGNKKKPGMPNVSNDLSQKLYATMEKHKEVFFVIRLIAGPAANSLPPIVDPDPLIPCDLMDGRDAFLTLARDKHLEFSSLRRAQWSTMCMLVELHTQSQDRFVYTCNECKHHVETRWHCTVCEDYDLCITCYNTKNHDHKMEKLGLGLDDESNNQQAAATQSPGDSRRLSIQRCIQSLVHACQCRNANCSLPSCQKMKRVVQHTKGCKRKTNGGCPICKQLIALCCYHAKHCQENKCPVPFCLNIKQKLRQQQLQHRLQQAQMLRRRMASMQRTGVVGQQQGLPSPTPATPTTPTGQQPTTPQTPQPTSQPQPTPPNSMPPYLPRTQA
modifications: GST fusion partner
**Q.** What does the source list for B1?
**A.** binding of S6K2 to p300 domains (S6K2): selective binding; acetylation of S6K1 (14C acetyl incorporation) (recombinant S6K1): acetyl groups were indeed incorporated; acetylation of S6K2 (14C acetyl incorporation) (recombinant S6K2): acetyl groups were indeed incorporated

From patent publication US20090181003A1, “Regulation of S6 Kinsase Protein Activity and Related Methods” (priority 2005, published 2009)
